One assay deals with GAL2R over GAL1R. To be noted: cited from earlier work. The source says:
In contrast, L^4P contacts with equivalent ECL2 residues with weaker hydrophobicity (L169^ECL2, A170^ECL2, and L172^ECL2) in GAL2R (Fig. 3e, Supplementary Fig. 4b). The structural observation is coincident with our peptide truncation assay.

For assay [1], the target named is SNAP-GAL2R (wild type) (human) (UniProt O43603).
Assay [2] concerns the target SNAP-GAL1R (wild type) (human) (UniProt P47211).
Assay [3] deals with SNAP-GAL2R (wild type) (human) (UniProt O43603). Put plainly: AlphaScreen or HTRF; competition: HEK293 cells with SNAP-GAL1R or SNAP-GAL2R labelled with SNAP-Lumi4-Tb; 50 nM galanin-A2 with increasing concentrations of unlabeled ligand, 1 h at room temperature; Ki by the Cheng-Prusoff equation.
In assay [4] the target is SNAP-GAL1R (wild type) (human) (UniProt P47211). The assay is described as above.
For assay [5], the target named is SNAP-GAL2R (wild type) (human) (UniProt O43603). The source holds these as a separate data set.
Assay [6] shares this target. The source holds these as a separate data set.
For assay [7], the target named is T1, N-terminal-SNAP-tagged GAL2R, wild type (human, UniProt O43603 1-387, Lumi4-Tb on the SNAP tag).
T1 construct: also called SNAP-GAL2R; GAL2R WT; source: HEK293, transfected, on cells; not shown: SNAP tag, N-terminal, kept
T1 sequence (looked up): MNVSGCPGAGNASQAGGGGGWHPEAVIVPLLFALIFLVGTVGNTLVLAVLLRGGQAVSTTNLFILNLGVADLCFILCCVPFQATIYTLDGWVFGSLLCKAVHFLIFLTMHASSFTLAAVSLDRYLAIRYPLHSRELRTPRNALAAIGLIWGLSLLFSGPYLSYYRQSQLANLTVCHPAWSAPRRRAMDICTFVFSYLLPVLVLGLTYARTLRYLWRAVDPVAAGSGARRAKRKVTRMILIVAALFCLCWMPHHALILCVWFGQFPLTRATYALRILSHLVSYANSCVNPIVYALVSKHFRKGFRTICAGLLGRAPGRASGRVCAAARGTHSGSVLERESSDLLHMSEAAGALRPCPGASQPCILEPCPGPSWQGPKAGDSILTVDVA
The assay is described as follows: AlphaScreen or HTRF; competition binding: HEK293 cells transfected with WT SNAP-tagged receptor and labelled with SNAP-Lumi4-Tb, incubated with 50 nM galanin-A2 and increasing concentrations of the unlabeled ligand, 1 h at room temperature; Ki from IC50 by the Cheng-Prusoff equation. To be noted: one partner purified.

The target of assay [8] is T2, N-terminal-SNAP-tagged GAL1R, wild type (human, UniProt P47211 1-349, Lumi4-Tb on the SNAP tag).
T2 construct: also called SNAP-GAL1R; GAL1R WT; source: HEK293, transfected, on cells; not shown: SNAP tag, N-terminal, kept
T2 sequence (looked up): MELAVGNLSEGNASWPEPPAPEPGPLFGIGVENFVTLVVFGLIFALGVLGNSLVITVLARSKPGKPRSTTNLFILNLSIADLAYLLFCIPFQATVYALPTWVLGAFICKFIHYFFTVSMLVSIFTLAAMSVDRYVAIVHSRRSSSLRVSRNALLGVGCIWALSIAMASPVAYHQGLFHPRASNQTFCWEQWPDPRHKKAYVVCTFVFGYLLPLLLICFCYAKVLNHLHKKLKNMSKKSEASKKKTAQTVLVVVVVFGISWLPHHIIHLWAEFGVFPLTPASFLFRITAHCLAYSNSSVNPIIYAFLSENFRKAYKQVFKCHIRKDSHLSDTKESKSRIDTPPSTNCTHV
Described as above. To be noted: one partner purified.

Several values for one entry are separate records, joined by “and”; a condition that tells them apart may be missing. Equal values may be shown once.

With “ARM1896: galanin segment 2-11 (WTLNSAGYLL; Galanin; UniProt P22466 34-43, looked up, fragment)”, the “selectivity for GAL1R” value with GAL2R over GAL1R was “low selectivity”.

For the molecule G1-truncated galanin (2-16) (peptide), the calcium assay EC50 (peptide on WT receptor; HEK293/Gα16 cells) in [1] was 50.1 nM and 12.3 nM; in [2] it was 3160 nM and 3440 nM and 3340 nM. The Ki – broadly, a measure of affinity in units of concentration, obtained from inhibition or displacement – in assay [3] is 80.1 nM and 42.6 nM and 27 nM; in assay [4] it was above 10000 nM.

“GALP (1–60): galanin-related peptide, galanin homologue; amino acids 9–21 identical to first 13 amino acids of galanin (APAHRGRGGWTLNSAGYLLGPVLHLPQMGDQDGKRETALEILDLWKAIDGLPYSHPPQPS; Galanin-like peptide; UniProt Q9UBC7 25-84, looked up)”: in the assay with GAL2R over GAL1R, the “affinity for GAL2R versus GAL1R” value is “higher affinity for GAL2R over GAL1R”.

As for galanin (1-13) (peptide), the calcium assay EC50 (peptide on WT receptor; HEK293/Gα16 cells) was 12.8 nM and 14.6 nM and 69 nM in assay [1]; 324 nM and 328 nM and 268 nM in assay [2]. Also, the Ki was 41.4 nM and 11.1 nM and 17.8 nM in assay [3]; 343 nM and 409 nM and 314 nM in assay [4].

With galanin (1-16) (peptide), the calcium assay EC50 (peptide on WT receptor; HEK293/Gα16 cells) in assay [1] is 23.5 nM and 12.5 nM and 12.6 nM. Moreover, the Ki in [3] was 20.1 nM and 22.6 nM and 15.6 nM.

For galanin (1-16, Y9A) (peptide), the calcium assay EC50 (peptide on WT receptor; HEK293/Gα16 cells) in [1] and in assay [2] was above 10000 nM in each case. For the same molecule, the Ki in assay [3] is above 100000 nM; in assay [4], 2880 nM and 2850 nM and 1690 nM.

Take “galanin (full length, unlabeled) (peptide)”: the calcium assay EC50 (galanin; HEK293/Gα16 cells) in [5] is 35.3 nM and 27.2 nM and 64.9 nM. Moreover, the calcium assay EC50 (peptide on WT receptor; HEK293/Gα16 cells) in assay [1] was 8.27 nM and 11.6 nM.

“spexin (mature, 14 amino acids) (peptide)”: the calcium assay EC50 (spexin) in assay [6] is 327 nM and 178 nM and 81.4 nM.

B1: Gal (1-13) (peptide)
peptide: GWTLNSAGYLLGP
notes: numbers count on: the mature protein
As for B1, the Ki is 23.5 nM in assay [7] and 356 nM in assay [8].

B2: Gal (1-16, Y9A) (peptide)
peptide: GWTLNSAGALLGPHAV
notes: as for B1
For B2, the Ki is above 100000 nM in assay [7] and 2480 nM in assay [8].

B3: Gal (2-16) (peptide)
peptide: WTLNSAGYLLGPHAV
notes: as for B1
As to B3, the Ki in [7] is 49.9 nM; in assay [8], above 10000 nM.

(Values after publication PMC8924211 (Nature Communications, 2022).)
